Experimental data: the supplement of paper PMC10724198

Legend:
Saccharomyces cerevisiae [1] = assay: protein stability index of tFT-peptide fusion in wild type (PSI (0-1 scale)); higher = more stable (slower turnover); details: genetic background: wild type
Description: (§1)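 MPS profiling in S. cerevisiae of two library types built from selected 12-aa C-degron peptides (IN1, IN2, LN1, LN3, VN2, R1-R5, W1-W3, Atg1 and Rpa12 C-termini): saturation mutagenesis libraries and C-terminal +1 capping libraries (13 aa). Each peptide is fused to the C-terminus of a sfGFP-mCherry timer, after a GGGS linker. Cells are FACS-sorted into 8 mCherry/sfGFP bins and sequenced. PSI runs from 0 (unstable) to 1 (stable), measured once in wild type and in the das1Δ or doa10Δ background.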

Saccharomyces cerevisiae [2] = assay: protein stability index of tFT-peptide fusion in deletion strain of DAS1 (PSI (0-1 scale)); higher = more stable (slower turnover)
Description: as §1
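For protein stability index of tFT-peptide fusion in deletion strain of DAS1 in this document: PSI is a weighted mean of each variant's read distribution over the sorted stability bins, computed only for variants having over 10 reads in total.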
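For protein stability index of tFT-peptide fusion in wild type in this document: PSI derived as read-weighted mean over the 8 sorting bins, only variants exceeding 10 total reads kept, mCherry placed adjacent to the peptide and sfGFP distal.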

Sequence | protein stability index (Saccharomyces cerevisiae [1]) | protein stability index (Saccharomyces cerevisiae [2])
FRMRWTFRYWVN | 0.0353 | 0.584
ARWRVGLWRGPS | 0.672 | 0.69
VRGAVGGWRAVG | 0.365 | 0.67
ARWRIGLWRGAS | 0.327 | 0.671
PDKRNWLIKLLN | 0.0714 | 0.675
LKPLRQKMNHQN | 0.172 | 0.682
LVVYLSRVACIN | 0.087 | 0.356
FSMRWTFRYWVR | 0.416 | 0.446
CTSCGYKFRTND | 0.7 | 0.695
ARGAVGGWRLVG | 0.172 | 0.653
RCIQPLPVQFLN | 0.0766 | 0.572
CTSRGYKFRTNN | 0.215 | 0.685
LVVYLSHVACIN | 0.148 | 0.411
RLIRPLPVQFLN | 0.0343 | 0.593
LKILRQKMNHKN | 0.484 | 0.678
CTSCGYKFRTTN | 0.191 | 0.699
PSLAASFWLVVG | 0.38 | 0.611
CTSCGYKQRTNN | 0.538 | 0.688
LVVYLSCVACMN | 0.0204 | 0.0497
RLIQPLPVQDLN | 0.6 | 0.576
LKILRQKMDHQN | 0.613 | 0.673
ARWRAGLWRGAS | 0.653 | 0.7
LKCLRQKMNHQN | 0.205 | 0.682
LVVYLSCVACIG | 0.0178 | 0.0316

Sequence | protein stability index (Saccharomyces cerevisiae [1]) | protein stability index (Saccharomyces cerevisiae [2])
ARWRVGLKRGAS | 0.627 | 0.663
CTSCGYAFRTNN | 0.226 | 0.697
LKIGRQKMNHQN | 0.414 | 0.674
VRGRVGGWRLVG | 0.121 | 0.675
PDKRNHLIALLN | 0.216 | 0.634
KQHKKGQKQKIN | 0.104 | 0.621
CTSCGYKFRTIN | 0.148 | 0.698
RLIQPLPVQALN | 0.36 | 0.569
LKYLRQKMNHQN | 0.17 | 0.629
FSMRWTFDYWVN | 0.618 | 0.577
FSMRSTFRYWVN | 0.096 | 0.608
PSGAASFWRVVG | 0.16 | 0.668
FSMRWTFRYWNN | 0.158 | 0.549
PDKRNHWIKLLN | 0.196 | 0.567
KKHKAGQKQKIN | 0.0948 | 0.579
ALIQPLPVQFLN | 0.101 | 0.649
PYLAASFWRVVG | 0.151 | 0.699
FSMRWCFRYWVN | 0.0796 | 0.554
CTSCGYKFRRNN | 0.49 | 0.703
PDKRNHLIKRLN | 0.104 | 0.602
RLIQPLPVQFNN | 0.554 | 0.6
PDKRNVLIKLLN | 0.125 | 0.589
LKILGQKMNHQN | 0.365 | 0.678
KKHKKGQKQKMN | 0.0838 | 0.533

Sequence | protein stability index (Saccharomyces cerevisiae [1]) | protein stability index (Saccharomyces cerevisiae [2])
VRGAVGFWRLVG | 0.16 | 0.687
CTACGYKFRTNN | 0.259 | 0.676
FSMRWTFHYWVN | 0.048 | 0.456
CYSCGYKFRTNN | 0.168 | 0.708
CTSCGYKFRTKN | 0.631 | 0.702
HSLAASFWRVVG | 0.121 | 0.691
KKHSKGQKQKIN | 0.0645 | 0.576
LVVYLSCVACINV | 0.02 | 0.0328
PSWAASFWRVVG | 0.154 | 0.714
FSMRWNFRYWVN | 0.0584 | 0.536
PDKRNHLQKLLN | 0.168 | 0.582
CTHCGYKFRTNN | 0.264 | 0.709
LKELRQKMNHQN | 0.217 | 0.673
KKHKKGQKQKNN | 0.476 | 0.643
RLIQPLPVQFFN | 0.0467 | 0.563
FQMRWTFRYWVN | 0.0681 | 0.46
PSLAATFWRVVG | 0.135 | 0.674
PDKRNHLIKPLN | 0.607 | 0.586
LVVYLSCTACIN | 0.0192 | 0.0401
VRGAVRGWRLVG | 0.146 | 0.7
CTSCGYKFRTNNF | 0.711 | 0.712
QVVYLSCVACIN | 0.0122 | 0.0307
ARWRVWLWRGAS | 0.341 | 0.711
ARWRVGWWRGAS | 0.405 | 0.701

Sequence | protein stability index (Saccharomyces cerevisiae [1]) | protein stability index (Saccharomyces cerevisiae [2])
RLIQPLPVQFCN | 0.195 | 0.681
VRGACGGWRLVG | 0.143 | 0.677
LVVYLSCVACINM | 0.183 | 0.206
PSLACSFWRVVG | 0.139 | 0.675
KKHKKGLKQKIN | 0.0663 | 0.596
PSLAASFWRVVGK | 0.666 | 0.689
FSMRWTFRYLVN | 0.0662 | 0.479
ARWRVALWRGAS | 0.254 | 0.671
VRGARGGWRLVG | 0.273 | 0.686
LVVYLSCVACHN | 0.0435 | 0.0392
RLIQPLCVQFLN | 0.0777 | 0.605
VRGAVGGWRLPG | 0.683 | 0.681
CTSCGYKFRFNN | 0.303 | 0.699
FSMEWTFRYWVN | 0.112 | 0.425
DKHKKGQKQKIN | 0.113 | 0.602
ARWVVGLWRGAS | 0.39 | 0.694
PDKRNHLIKLQN | 0.453 | 0.737
CTSLGYKFRTNN | 0.17 | 0.689
FSMRWTFRYWVNP | 0.533 | 0.544
LKIQRQKMNHQN | 0.23 | 0.676
LVVYLSNVACIN | 0.344 | 0.5
PDKRNHVIKLLN | 0.0941 | 0.605
KKVKKGQKQKIN | 0.122 | 0.631
LVVYLSCVAYIN | 0.0128 | 0.0273

Sequence | protein stability index (Saccharomyces cerevisiae [1]) | protein stability index (Saccharomyces cerevisiae [2])
VSMRWTFRYWVN | 0.0543 | 0.509
PSLAASFWRVPG | 0.677 | 0.689
FSMSWTFRYWVN | 0.0567 | 0.493
ARWIVGLWRGAS | 0.398 | 0.684
ARWRVGLWRGAA | 0.17 | 0.675
RLIQPLPVQVLN | 0.204 | 0.46
CTSCGYKFNTNN | 0.42 | 0.722
FSMRWTFRYWVM | 0.136 | 0.482
WKILRQKMNHQN | 0.244 | 0.678
LKILRQKMNHQD | 0.622 | 0.667
AGWRVGLWRGAS | 0.424 | 0.722
RLIQPLPVQFLQ | 0.447 | 0.647
LVVYLSCVACCN | 0.0106 | 0.0342
RLIQPLGVQFLN | 0.0859 | 0.66
CTSDGYKFRTNN | 0.517 | 0.669
FSMRWEFRYWVN | 0.0711 | 0.471
PDKRSHLIKLLN | 0.0872 | 0.631
LVVYLSCVACSN | 0.0158 | 0.0313
LKILRQKVNHQN | 0.282 | 0.661
LYILRQKMNHQN | 0.135 | 0.666
PVLAASFWRVVG | 0.161 | 0.68
